Substitutions are numbered along the chain they refer to. Numbers in names are those of the source. One block for each binder: values may come before it.
Tests used:
[1] = biological target: T1, GARS-His (Sino Biological) (human, UniProt P41250 37-739, limits assumed); experiment: ELISA on coated GARS-His, 150 ng IgG1; None 0.099
T1 construct: Bought; also called GARS1; glycyl-tRNA synthetase; not shown: His tag of the bought protein
T1 sequence: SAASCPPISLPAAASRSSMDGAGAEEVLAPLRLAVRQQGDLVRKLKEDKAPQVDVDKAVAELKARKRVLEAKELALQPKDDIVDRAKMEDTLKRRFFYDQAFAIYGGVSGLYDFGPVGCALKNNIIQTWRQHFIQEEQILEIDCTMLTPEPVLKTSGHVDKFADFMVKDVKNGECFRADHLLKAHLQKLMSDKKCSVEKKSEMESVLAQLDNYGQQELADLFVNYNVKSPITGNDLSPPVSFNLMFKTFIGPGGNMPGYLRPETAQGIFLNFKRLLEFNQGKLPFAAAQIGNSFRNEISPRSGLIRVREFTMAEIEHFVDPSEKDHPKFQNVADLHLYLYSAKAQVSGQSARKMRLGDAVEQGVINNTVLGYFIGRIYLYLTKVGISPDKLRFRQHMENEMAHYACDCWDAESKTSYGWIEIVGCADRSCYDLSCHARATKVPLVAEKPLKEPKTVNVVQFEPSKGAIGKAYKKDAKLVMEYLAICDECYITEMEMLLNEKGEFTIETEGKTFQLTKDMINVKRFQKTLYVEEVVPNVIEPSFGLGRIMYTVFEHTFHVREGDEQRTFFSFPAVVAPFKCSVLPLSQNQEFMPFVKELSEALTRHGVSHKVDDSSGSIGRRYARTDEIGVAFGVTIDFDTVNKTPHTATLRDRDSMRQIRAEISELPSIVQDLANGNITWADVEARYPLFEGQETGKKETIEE
Experimental: (§1) Recombinant purified ECDs (50-150 ng) of each putative target protein were coated, incubated with 150 ng of the indicated primary antibody, and binding was detected using a peroxidase-conjugated anti-human Fab secondary antibody. Heatmap represents averages of technical triplicates. (8B) Target validation via siRNA knockdown. H929 cells were transfected with siRNA pools targeting the putative antibody targets ICAM1, CADM1, and PTPRG. Cells were then subjected to cognate IgG binding analysis via flow cytometry. (NT, non-targeting siRNA).
(§2) ELISA ELISA was conducted as described previously. Briefly, 50-150 ng of antigen was coated overnight in half-area 96-well plates at 4° C., blocked with 3% BSA at 37° C. for 1 h, and 150 ng of chimeric rabbit/human IgG1 was added, incubating for 2 h at 37° C. […] After incubating at 37° C. for 15 min-1 h (depending on intensity of controls), data were acquired using a SpectraMax M5 plate reader (Molecular Devices).

[2] = biological target: T2, GARS, endogenous in H929 multiple myeloma cells (human, UniProt P41250 37-739, limits assumed); experiment: flow cytometry, H929 + vehicle; None 2.74; surface target GARS putative
T2 construct: Native protein pulled down from H929 lysates; also called Glycyl-tRNA synthetase; GlyRS
T2 sequence: T1 sequence

[3] = biological target: T2, GARS, endogenous in H929 multiple …; experiment: flow cytometry, H929 + CADM1 siRNA; None 0.89; surface target GARS putative
[4] = biological target: T3, DCC; experiment: ELISA on coated DCC-His
T3 construct: coated protein in the ELISA; also called DCC-His (R&D Systems)
T3 chain: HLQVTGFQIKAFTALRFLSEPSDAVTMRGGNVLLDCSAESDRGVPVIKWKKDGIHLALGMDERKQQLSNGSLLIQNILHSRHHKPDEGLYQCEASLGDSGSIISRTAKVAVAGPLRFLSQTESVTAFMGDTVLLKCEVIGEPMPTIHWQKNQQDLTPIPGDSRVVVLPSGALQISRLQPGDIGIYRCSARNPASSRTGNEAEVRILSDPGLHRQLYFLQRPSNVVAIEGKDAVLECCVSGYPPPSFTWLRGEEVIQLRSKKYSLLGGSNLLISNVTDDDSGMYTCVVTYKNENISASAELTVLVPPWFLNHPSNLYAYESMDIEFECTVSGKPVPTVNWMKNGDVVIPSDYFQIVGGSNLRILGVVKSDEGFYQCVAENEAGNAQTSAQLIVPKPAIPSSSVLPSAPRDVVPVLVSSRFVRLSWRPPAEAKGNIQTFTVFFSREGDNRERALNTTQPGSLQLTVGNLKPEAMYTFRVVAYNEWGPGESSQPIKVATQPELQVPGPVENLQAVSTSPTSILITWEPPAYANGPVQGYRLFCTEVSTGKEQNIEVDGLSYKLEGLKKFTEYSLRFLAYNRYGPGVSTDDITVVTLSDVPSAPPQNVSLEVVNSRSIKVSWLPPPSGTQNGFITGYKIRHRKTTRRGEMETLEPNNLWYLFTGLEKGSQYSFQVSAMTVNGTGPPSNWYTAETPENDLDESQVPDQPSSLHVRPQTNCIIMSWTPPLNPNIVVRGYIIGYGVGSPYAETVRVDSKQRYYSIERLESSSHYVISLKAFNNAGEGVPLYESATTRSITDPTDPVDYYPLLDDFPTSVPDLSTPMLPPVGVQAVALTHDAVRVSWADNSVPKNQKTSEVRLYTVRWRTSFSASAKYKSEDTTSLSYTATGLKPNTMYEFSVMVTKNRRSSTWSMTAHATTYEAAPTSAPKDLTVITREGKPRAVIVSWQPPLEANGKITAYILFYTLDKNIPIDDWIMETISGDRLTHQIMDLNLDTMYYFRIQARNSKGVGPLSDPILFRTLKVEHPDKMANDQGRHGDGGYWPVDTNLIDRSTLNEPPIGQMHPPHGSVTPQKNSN
Experimental: as §1, §2

[5] = biological target: T4, IL13RA1; experiment: ELISA on coated IL13RA1-Fc-His, 150 ng IgG1; None 0.094
T4 construct: coated protein in the ELISA; also called IL13RA1-Fc-His (R&D Systems)
T4 chain: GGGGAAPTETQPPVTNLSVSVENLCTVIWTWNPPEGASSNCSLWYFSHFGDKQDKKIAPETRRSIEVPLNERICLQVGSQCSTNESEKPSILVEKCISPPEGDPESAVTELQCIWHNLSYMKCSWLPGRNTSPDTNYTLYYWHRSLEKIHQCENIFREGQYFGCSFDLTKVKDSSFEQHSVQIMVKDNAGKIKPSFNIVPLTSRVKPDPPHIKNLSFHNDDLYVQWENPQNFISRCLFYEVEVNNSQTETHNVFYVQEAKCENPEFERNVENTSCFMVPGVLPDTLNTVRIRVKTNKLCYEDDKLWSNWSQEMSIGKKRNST
Experimental: as §1, §2

B3: HW-70 chimeric rabbit-human IgG1 LA/LA/PG (antibody, V domains shown)
VH: QSLEESGGRLVTPGTPLTLTCTVSGFSLSSNAMSWVRQAPGKGLEWIGTIDGYGYTYYASWAKGRFTVSKTSTTVDLKITSPTTEDTATYFCAREIYLGSNFWGPGTLVTISS
VL: SFVLTQPASVQVNLGQTVSLTCTADTLSRRYASWYQQKPGQAPVLLIYRDTSRPSGVPDRFSGSSSGNTATLTISGAQAGDEADYYCATADGSGSSYQFVFGGGTQLTVTG
notes: Fc-silenced (L234A/L235A/P329G) IgG1, lambda; Alexa Fluor 647-labeled in single-step flow cytometry; Cluster C-1
binding result [4]: no binding (tested: 150 ng IgG1 per well) | ELISA Absorbance (405 nm-570 nm) [1]: 0.087 | ELISA Absorbance (405 nm-570 nm) [5]: 0.085

B5: TH9-0022 (antibody, human IgG1, kappa, L234A L235A, V domains shown)
VH: QSLEESGGRLVTPGTPLTLTCTVSGFSLSSYAMNWVRQAPGKGLEWIGIINSYGSTYYASWAKGRFTISKTSTTVDLKITSPTTEDTATYFCARVTYDSYGYGYAPYGMDLWGPGTLVTVSS
VL: LVMTQTPSSTSNAVGGTVTIKCQASQSIGNVLAWYQQKPGQPPKLLIYAASTLASGVPSRVGGSRSGTEYTLTISGVQREDAATYYCLGSDSDSDIAFGGGTELEILR
notes: also called TH9-022; negative control
binding result [4]: no binding (tested: 150 ng IgG1 per well) | ELISA Absorbance (405 nm-570 nm) [1]: 0.098 | ELISA Absorbance (405 nm-570 nm) [5]: 0.08

More lines, main results first:

ELISA Absorbance (405 nm-570 nm) [1]: 0.628 | Cells stained (%) [2]: 98.6% | Cells stained (%) [3]: 98.5%
B1: HW-28 chimeric rabbit-human IgG1 LA/LA/PG (antibody, V domains shown)
VH: QKQLVESGGRLVTPGTPLTLTCTASGFSLSSNAMSWVRQAPGEGLQWIGTISSGGSTYYASWAKGRFTISKTSTTVTLKMTSLTTEDTATYFCARGADLHRLWGPGTLVTVSS
VL: B3 VL with A24G, D25K, T26P, R30S, Y31F, L46V, A90S, F99Y
notes: Fc-silenced (L234A/L235A/P329G) IgG1, lambda; Alexa Fluor 647-labeled in single-step flow cytometry; Cluster C-45

ELISA Absorbance (405 nm-570 nm) [1]: 0.093 | ELISA Absorbance (405 nm-570 nm) [5]: 0.067
B2: HW-101 chimeric rabbit-human IgG1 LA/LA/PG (antibody, V domains shown)
VH: QEQLVESGGRLVTPGTPLTLTCKASGFSLGKYDMSWVRQAPGKGLEWIGTIYAGSGSTWYASWAKGRFTISKTSTTVDLKMTSLTTEDTATYFCARDFLGVNSIWGPGTLVTISS
VL: B3 VL with R30S, G40D, Y48H, S65N, A90S, S96N, Y97F, Q98H
notes: Fc-silenced (L234A/L235A/P329G) IgG1, lambda; Alexa Fluor 647-labeled in single-step flow cytometry; Cluster C-97
binding result [4]: no binding (tested: 150 ng IgG1 per well)

ELISA Absorbance (405 nm-570 nm) [1]: 0.741 | Cells stained (%) [2]: 96.8% | Cells stained (%) [3]: 97%
B4: HW-45 chimeric rabbit-human IgG1 LA/LA/PG (antibody, V domains shown)
VH: QKQLVESGGRLVTPGTPLTLTCTVSGFSLSSYAMGWFRQAPGKGLEWIGIINSYGSTYYASWAKGRFTISKTSTTVDLKITSPTTEDTATYFCGRRIGSARFDPWGPGTLVTVSS
VL: B3 VL with R30S, S52R, A90S, Q98R, F99L
notes: Fc-silenced (L234A/L235A/P329G) IgG1, lambda; Alexa Fluor 647-labeled in single-step flow cytometry; Prototype of cluster C-45

ELISA Absorbance (405 nm-570 nm) [1]: 0.718 | ELISA Absorbance (405 nm-570 nm) [5]: 0.163 | Cells stained (%) [2]: 99.1% | Cells stained (%) [3]: 99%
B6: HW-16 chimeric rabbit-human IgG1 LA/LA/PG (antibody, V domains shown)
VH: QSLEESGGRLVTPGTPLTLTCTASGFSLSSYAMSWVRQAPGKGLEWIGTMPTGGGTYYASWAKGRFTISKTSTTVDLQITSPTTEDTATYFCAKHWNIWGPGTLVTISS
VL: DIVLTQTPSSTSTAVGDTVTINCRASQSIGRNLAWFQQKPGQPPKLLIYRASNLASGVPSRFKGSGSRTQFTLTISGVQREDAATYYCLGSYSSSDTAFGGGTELEILR
notes: Fc-silenced (L234A/L235A/P329G) IgG1, kappa; Alexa Fluor 647-labeled in single-step flow cytometry; Cluster C-45

Reference: US20260049134A1 (UNIVERSITY OF FLORIDA RESEARCH FOUNDATION, published 2026)
